{
  "source": "paper PMC12849132",
  "data": [
    {"target": "T1, PhaR (Ralstonia eutropha H16 (Cupriavidus necator)) (UniProt Q0KBP6)", "T1 sequence": "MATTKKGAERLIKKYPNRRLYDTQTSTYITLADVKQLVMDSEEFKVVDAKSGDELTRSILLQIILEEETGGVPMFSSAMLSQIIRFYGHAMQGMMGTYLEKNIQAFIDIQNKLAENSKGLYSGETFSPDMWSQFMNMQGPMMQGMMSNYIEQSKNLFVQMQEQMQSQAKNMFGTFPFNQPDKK", "test": "EMSA", "details": "EMSA: 0-250 ng PhaR, ~75 ng FAM-DNA, 5 uL master mix (1.75 uL 10x TBE, 0.25 uL 10 mg/mL herring sperm DNA, 3 uL DNA), 30 min at 37 C, 7.5% native PAGE", "values": [
      {"sequence": "GGCGCTGTCAATCCGGAAGCCAAACCGAAGCGGATTCACGTTGCAATCTGTTGCGCGAATCCGTTCGATCAATCCACAGGAGATTTTGCATGTCCCCTTTTATGCCCGAGCAATTTGCTGCAGTGCAAAAGTCCAGTCTGAACCAACTGTTCGCGCTGACGAACATGGCTTTTGACGGCGGA (double strand) [F3 (BS3, phaP3)]", "binding": "binds more weakly"},
      {"sequence": "ATCGAATTCTGTATTCAGAGATCCGTTCCAAGCGTCTGGGGTGAAGTGCGCCCTACACATGTCATGCACTGCAACATTTCTGCGTAAGCACATGTAAATTTAGAGACGTACGATGCACTTTTATTGTCCTGTTTTAAAGACTTTTTGGGTATATACCTAGGGATCAAATTAGAGGAAACCCTCTAGGATTCGCACTCGGATGCT (double strand) [F1 (BS1, phaP3)]", "binding": "binds"},
      {"sequence": "ATCGAATTCTGTATTCAGAGATCCGTTCCAAGCGTCTGGGGTGAAGTGCGCCCTACACATGTCATGCACTGCAACATTTCTGCGTAAGCACATGTAAATTTAGAGACGTACGATGCACTTTTATTGTCCTGTTTTAAAGACTTTTTGGGTATATACCTAGGGATCAAATTAGAGGAAACCCTCTAGGATTCGCACTCGGATGCTGCGCTGCAGGATTGGTGGCGCTGTCAATCCGGAAGCCAAACCGAAGCGGATTCACGTTGCAATCTGTTGCGCGAATCCGTTCGATCAATCCACAG (double strand) [F4 (BS1+BS2, phaP3)]", "binding": "binds"},
      {"sequence": "ATCGAATTCACGATGCACTTTTATTGTCCTGTTTTAAAGACTTTTTGGGTATATACCTAGGGATCAAATTAGAGGAAACCCTCTAGGATTCGCACTCGGATGCTGCGCTGCAGGATTGGTGGCGCTGTCAATCCGGAAGCCAAACCGAAGCGGATTCACGTTGCAATCTGTTGCGCGAATCCGTTCGATCAATCCACAG (double strand) [F2 (BS2, phaP3)]", "binding": "binds more weakly"}
    ]}
  ]
}
